Reference: patent US7981652B2, “Modified cytochrome P450 monooxygenases” (BASF Aktiengesellschaft, priority 1999, dated 2011)

Columns and labels:
[1] = from reference (12); cited from earlier work
[2] = from reference (1); cited from earlier work
[3] = pNCA enzyme activity assay, substrate 15-pNCA; assay type: biochemical
Method: (§1) For the pNCA activity assay use was made of 8 μl of a 10 mM pNCA solution in DMSO in a disposable cell in an end volume of 1 ml. After 850 μl of Tris/HCl buffer (0.1 M, pH 8.2) and 0.1 to 0.4 nmol P450 had been added to the pNCA/DMSO solution in question, the samples were preincubated for 5 minutes before the reaction was started by adding 50 μl of an aqueous solution of […]. To determine Kcat and Km, a concentration series was established for the various pNCA substrates (regarding details of the detection method, see (12)).
(§2) A 96-well plate (Greiner, Frickenhausen, Germany) was used for carrying out the pNCA test in a microtiter plate. In a total reaction volume of 250 μl in Tris/HCl buffer (0.1 M, pH 8.2), the reaction batch contained either 60 nmol 8-pNCA, 15 nmol 10-pNCA, 15 nmol 12-pNCA or 15 nmol 15-pNCA, in each case dissolved in 2.5 μl of DMSO. After the samples had been preincubated for 5 minutes with 40 μl of P450 BM-3 samples, the reaction was started by injecting, into each well, 30 μl of a 1 mM NADPH solution. Immediately after the NADPH solution had been added, the plates were measured in a plate reader at 405 nm.

[4] = pNCA enzyme activity assay, substrate 12-pNCA; assay type: biochemical
Method: as §1, §2

[5] = pNCA enzyme activity assay, substrate 10-pNCA; assay type: biochemical
Method: as §1, §2

[6] = pNCA enzyme activity assay, substrate 8-pNCA; assay type: biochemical
Method: as §1, §2

[7] = Hydroxylation of lauric acid with P450 BM-3 mutants, GC analysis of products; assay type: biochemical
Method: The following batch was chosen to hydroxylate the fatty acids in the presence of P450 BM-3 or its mutants:
Prior to the reaction, the enzyme lyophilisate was dissolved in 1 ml of reaction buffer and first incubated for 30 minutes at 36° C. Like the addition of 2% v/v acetone, the incubation leads to an increase in activity of 60 and 75%, respectively.
After 5 minutes' incubation, 500 μl of the previously prepared NADPH solution (12.5 mg/ml) were added. The course of the reaction is monitored by absorption measurements at 340 nm, and the consumption of NADPH can be observed. Theoretically 4 ml of NADPH solution would be required for a stoichiometric conversion, however, an unduly high NADPH concentration in the reaction solution results in inactivation of the enzyme, which is why the cofactor is added in 500 μl steps.
After the reaction had ended, the solution was acidified with 5M hydrochloric acid to a pH of 2. The fatty acids or hydroxylated fatty acids precipitate during this and result in a noticeable cloudiness of the solution. Thereafter, the mixture was extracted twice with in each case 10 ml of dichloromethane and dried over sodium sulfate. After filtration through a folded filter, the dichloromethane was removed on a rotary evaporator or by evaporation with nitrogen. The white solid which remained was taken up in 2 ml of dichloromethane and used in the GC analysis.
A Fisons gas chromatograph (Fisons Instruments Mega Series, Mainz, Germany) equipped with FID was used for the analysis (Optima 5-column, internal diameter 25 m×0.25 mm, Macherey & Nagel, Düren, Germany).
For analysis, starting materials and products were silylated with MSHFBA. During this, all hydroxyl and acid groups are converted into the corresponding trimethylsilyl ethers and esters, respectively. Care must be taken that the sample is anhydrous since otherwise side reactions with the silylating agent result. 15 μl of MSHFBA were pipetted into 10 μl of the hydroxy-fatty-acid-containing dichloromethane solution and the mixture was incubated for 15 minutes at room temperature. After 25 μl of dichloromethane had been added, the GC analysis was carried out.
To this end, 1 μl of the silylated samples were injected into the gas chromatograph. Injector and detector temperature were 350° C. The following temperature programmes were used:
To determine the reaction yields, gas chromatograms of standards were recorded. […] These ion fluxes are not proportional to the quantitative ratio of starting material and product. […] The empirical formulae of the standards and of the products are identical, and the structure only differs with regard to the position of the hydroxyl group, which is why approximately identical detectable ion fluxes can be assumed for identical quantities.

B1: WT: wild-type cytochrome P450 monooxygenase BM-3 from Bacillus megaterium, SEQ ID NO:2 (protein, listed as Bacillus megaterium)
chain: TIKEMPQPKTFGELKNLPLLNTDKPVQALMKIADELGEIFKFEAPGRVTRYLSSQRLIKEACDESRFDKNLSQALKFVRDFAGDGLFTSWTHEKNWKKAHNILLPSFSQQAMKGYHAMMVDIAVQLVQKWERLNADEHIEVPEDMTRLTLDTIGLCGFNYRFNSFYRDQPHPFITSMVRALDEAMNKLQRANPDDPAYDENKRQFQEDIKVMNDLVDKIIADRKASGEQSDDLLTHMLNGKDPETGEPLDDENIRYQIITFLIAGHETTSGLLSFALYFLVKNPHVLQKAAEEAARVLVDPVPSYKQVKQLKYVGMVLNEALRLWPTAPAFSLYAKEDTVLGGEYPLEKGDELMVLIPQLHRDKTIWGDDVEEFRPERFENPSAIPQHAFKPFGNGQRACIGQQFALHEATLVLGMMLKHFDFEDHTNYELDIKETLTLKPEGFVVKAKSKKIPLGGIPSPSTEQSAKKVRKKAENAHNTPLLVLYGSNMGTAEGTARDLADIAMSKGFAPQVATLDSHAGNLPREGAVLIVTASYNGHPPDNAKQFVDWLDQASADEVKGVRYSVFGCGDKNWATTYQKVPAFIDETLAAKGAENIADRGEADASDDFEGTYEEWREHMWSDVAAYFNLDIENSEDNKSTLSLQFVDSAADMPLAKMHGAFSTNVVASKELQQPGSARSTRHLEIELPKEASYQEGDHLGVIPRNYEGIVNRVTARFGLDASQQIRLEAEEEKLAHLPLAKTVSVEELLQYVELQDPVTRTQLRAMAAKTVCPPHKVELEALLEKQAYKEQVLAKRLTMLELLEKYPACEMKFSEFIALLPSIRPRYYSISSSPRVDEKQASITVSVVSGEAWSGYGEYKGIASNYLAELQEGDTITCFISTPQSEFTLPKDPETPLIMVGPGTGVAPFRGFVQARKQLKEQGQSLGEAHLYFGCRSPHEDYLYQEELENAQSEGIITLHTAFSRMPNQPKTYVQHVMEQDGKKLIELLDQGAHFYICGDGSQMAPAVEATLMKSYADVHQVSEADARLWLQQLEEKGRYAKDVWAG
conversion of 12-pNCA (ω-hydroxylation) [1]: 33% | catalytic activity for fatty acids with a chain length of less than 12 carbon atoms [2]: no catalytic activity | Specific activity [3]: 405 nmol/min/nmol P450 | Specific activity [4]: 141 nmol/min/nmol P450 | Specific activity [5]: 339 nmol/min/nmol P450 | Specific activity [6]: 15 nmol/min/nmol P450 | positions in which the enzyme is active ([7]; lauric acid): only active in the positions w-1, w-2 and w-3 | Hydroxylation position ω-1, share of products ([7]; lauric acid (C12)): 38% | Hydroxylation position ω-2, share of products ([7]; lauric acid (C12)): 28% | Hydroxylation position ω-3, share of products ([7]; lauric acid (C12)): 34%
